Two molecules from patent EP4170021A1 can be followed below.

Some results are limits rather than exact numbers.

The target in the assay is MCR-1 protein. Briefly: indirect ELISA, plate coated with MCR-1 protein at 0.2 ug/mL, purified antibody serially diluted. Particulars: scale: dilution factor. A general note: An ELISA detects its analyte on a solid surface through an enzyme-linked reagent.

B1: mouse anti-MCR-1 protein antibody 1BD9 (antibody, V domains shown)
VH: VKLQQSGPELVKPGASVKVSCKASGYAFTSCNMYWVKQSHGKSLEWIGYFDPYSGDAYYNQKFKDKATLTVDKSSSTAYMHLNSLTSEDSAVYYCASWLQLYYALDYWGQGTSVTVSA
VL: AIQMTQTPSSLSASLGDRVTISCRASQDISNYLNWYQQKPDGTVKLLIYYTSRLHSGVPSRFSGSGSGTDYSLNISNLEQEDFATYFCQQGDMIPDTFGGGTKLEIKR
Molecule B1 came in with a titer of more than 1.28e+06.

B2: mouse anti-MCR-1 protein antibody 1BH8 (antibody, V domains shown)
VH: VQLQQSGPELVKPGASVKMSCRASGYTFTNYIMHWVKQKPGQGLDWIGYINPYNDGTKYNEKFKGKATLSSDKSSGTAYMDLSSLTSEDSAVYYCARGPYGNYAMDYWGQGTSVTVSS
VL: DVLMTQTPLSLPVSLGDQASISCRSSQNIVCSYGNPCLEWYLQKPGQSPKLLIYKVSNRFSGVPDRFSGSGSGTDFTLKISRVEAEDLGVYYCFQGSHVPWTFGGGTELEIKR
In turn, B2 yielded a titer of more than 1.28e+06.
